Positions count from the first letter of the chain named.
T1: recombinant mouse VEGF164 (mouse, UniProt Q00731-2 27-190, biotinylated in the AlphaScreen)
T1 construct: also called mVEGF164; rmVEGF164
T1 sequence (looked up): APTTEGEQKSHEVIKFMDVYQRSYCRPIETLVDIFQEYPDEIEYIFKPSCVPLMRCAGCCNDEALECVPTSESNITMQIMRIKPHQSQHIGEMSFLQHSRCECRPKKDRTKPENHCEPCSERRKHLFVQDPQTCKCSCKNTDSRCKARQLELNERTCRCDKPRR

B1: VEGFBII42A05 (VHH, not shown: small tags and cut ends)
VHH: EVQLVESGGGLVQPGDSLKLSCAFSGRTFSSYSMGWFRQAQGKEREFVVAISSSGGYIYDSVSLEGRFTISRDNTKNTVYLQMPSLKPEDTADYYCAASRAYGSSRLRLADTYDYWGQGTQVTVSS
B2: VEGFBII60A09 (VHH, not shown: small tags and cut ends)
VHH: B1 VHH with K76R, M83T
B3: VEGFBII56E11 (VHH, not shown: small tags and cut ends)
VHH: B1 VHH with M83T, T91A
B4: VEGFBII62D10 (VHH, not shown: small tags and cut ends)
VHH: B1 VHH with G8E, P14A, K19R, F24A, G56N, I58K, M83I, P84N, D93V, A110G
B5: VEGFBII62A09 (VHH, not shown: small tags and cut ends)
VHH: B1 VHH with G10D, F24A, M83T, D93V
B6: VEGFBII23B04 (VHH, not shown: small tags and cut ends)
VHH: EVQLVESGGGLVQTGDSLRLSCEVSGRTFSSYSMGWFRQAQGKEREFVVAISKGGYKYDSVSLEGRFTISKDNAKNTVYLQINSLKPEDTAVYYCASSRAYGSSRLRLADTYEYWGQGTQVTVSS
notes: also purified from E. coli TG1; also called VEGFBII23B4; VEGFBII23B04 (wt)
B7: VEGFBII23A06 (VHH, not shown: small tags and cut ends)
VHH: EVQLVESGGGLVQPGDSLKLSCAFSGRTFSSYSMGWFRQAQGKEREFVVAISSGGFIYDAVSLEGRFTISRDNTKNTVYLQTPSLKPEDTAVYYCAASRAYGSSRLRLADTYDYWGQGTQVTVSS
notes: also purified from E. coli TG1; also called VEGFBII23A6; 23A6
B8: VEGFBII24C04 (VHH, not shown: small tags and cut ends)
VHH: B7 VHH with A23V, F24A, F29S, F56Y, A60S, E64Q
notes: also purified from E. coli TG1; also called VEGFBII24C4
B9: VEGFBII021 (VHH, not shown: small tags and cut ends)
chain: EVQLVESGGGLVQTGDSLRLSCEVSGRTFSSYSMGWFRQAQGKEREFVVAISKGGYKYDSVSLEGRFTISKDNAKNTVYLQINSLKPEDTAVYYCASSRAYGSSRLRLADTYEYWGQGTQVTVSSGGGGSGGGGSGGGGSGGGGSGGGGSGGGGSGGGGSGGGGSEVQLVESGGGLVQPGGSLRLSCVASGIRFMSMAWYRQAPGKHRELVARISSGGTTAYVDSVKGRFTISRDNSKNTVYLQMNSLKAEDTAVYYCNTFSSRPNPWGAGTQVTVSS
B10: VEGFBII025 (VHH, not shown: small tags and cut ends)
chain: EVQLVESGGGLVQAGGSLRLSCAASGRTFSNYAMGWFRQAPGKERVLVADISSSGINTYVADAVKGRFTISRDNAKNTVYLQMNSLKPEDTAVYYCAASAWWYSQMARDNYRYWGQGTQVTVSSGGGGSGGGGSGGGGSGGGGSGGGGSGGGGSGGGGSGGGGSEVQLVESGGGLVQTGDSLRLSCEVSGRTFSSYSMGWFRQAQGKEREFVVAISKGGYKYDSVSLEGRFTISKDNAKNTVYLQINSLKPEDTAVYYCASSRAYGSSRLRLADTYEYWGQGTQVTVSS
B11: VEGFBII024 (VHH, not shown: small tags and cut ends)
chain: EVQLVESGGGLVQTGDSLRLSCEVSGRTFSSYSMGWFRQAQGKEREFVVAISKGGYKYDSVSLEGRFTISKDNAKNTVYLQINSLKPEDTAVYYCASSRAYGSSRLRLADTYEYWGQGTQVTVSSGGGGSGGGGSGGGGSGGGGSGGGGSGGGGSGGGGSGGGGSEVQLVESGGGLVQAGGSLRLSCTASGSAFKSYRMGWFRRTPGKEDEFVASISWTYGSTFYADSVKGRFTMSRDKAKNAGYLQMNSLKPEDTALYYCAAGAQSDRYNIRSYDYWGQGTQVTVSS
B12: VEGFBII022 (VHH, not shown: small tags and cut ends)
chain: EVQLVESGGGLVQTGDSLRLSCEVSGRTFSSYSMGWFRQAQGKEREFVVAISKGGYKYDSVSLEGRFTISKDNAKNTVYLQINSLKPEDTAVYYCASSRAYGSSRLRLADTYEYWGQGTQVTVSSGGGGSGGGSEVQLVESGGGLVQPGGSLRLSCVASGIRFMSMAWYRQAPGKHRELVARISSGGTTAYVDSVKGRFTISRDNSKNTVYLQMNSLKAEDTAVYYCNTFSSRPNPWGAGTQVTVSS
B13: VEGFBII023 (VHH, not shown: small tags and cut ends)
chain: EVQLVESGGGLVQTGDSLRLSCEVSGRTFSSYSMGWFRQAQGKEREFVVAISKGGYKYDSVSLEGRFTISKDNAKNTVYLQINSLKPEDTAVYYCASSRAYGSSRLRLADTYEYWGQGTQVTVSSGGGGSGGGGSGGGGSGGGGSGGGGSGGGGSGGGGSGGGGSEVQLVESGGGLVQAGGSLRLSCAASGRTFSNYAMGWFRQAPGKERVLVADISSSGINTYVADAVKGRFTISRDNAKNTVYLQMNSLKPEDTAVYYCAASAWWYSQMARDNYRYWGQGTQVTVSS
B14: VEGFBII010 (VHH, not shown: small tags and cut ends)
chain: EVQLVESGGGLVQTGDSLRLSCEVSGRTFSSYSMGWFRQAQGKEREFVVAISKGGYKYDSVSLEGRFTISKDNAKNTVYLQINSLKPEDTAVYYCASSRAYGSSRLRLADTYEYWGQGTQVTVSSGGGGSGGGGSGGGGSGGGGSGGGGSGGGGSGGGGSEVQLVESGGGLVQTGDSLRLSCEVSGRTFSSYSMGWFRQAQGKEREFVVAISKGGYKYDSVSLEGRFTISKDNAKNTVYLQINSLKPEDTAVYYCASSRAYGSSRLRLADTYEYWGQGTQVTVSS
B15: VEGFBII037 (VHH)
VHH: DVQLVESGGGLVQPGGSLRLSCAASGRTFSSYSMGWFRQAPGKEREFVVAISKGGYKYDAVSLEGRFTISRDNAKNTVYLQMNSLRPEDTAVYYCASSRAYGSSRLRLADTYEYWGQGTLVTVSS
B16: VEGFBII038 (VHH)
VHH: B15 VHH with M82I

What follows are binders tested against T2, recombinant human VEGF165 (human, UniProt P15692-4 27-191, biotinylated (Sulfo-NHS-LC-Biotin) in the competition assays) (assay: Biacore, periplasmic extract, VEGF165 chip, two phase decay fit).
T2 construct: also called hVEGF165; rhVEGF165
Set-up: unit not given here
Protocol: Dissociation rates of inhibitory VHHs are analyzed on Biacore (Biacore T100 instrument, GE Healthcare). HBS-EP+ buffer is used as running buffer and experiments are performed at 25° C. […] After immobilization, surfaces are deactivated with 10 min injection of 1 M ethanolamine pH8.5. A reference surface is activated and deactivated with respectively EDC/NHS and ethanolamine. Periplasmic extracts of VHHs are injected at a 10-fold dilution in running buffer for 2 min at 45 μl/min and allowed to dissociate for 10 or 15 min. Between different samples, the surfaces are regenerated with regeneration buffer. Data are double referenced by subtraction of the curves on the reference channel and of a blank running buffer injection. […] is evaluated by fitting a two phase decay model in the Biacore T100 Evaluation software v2.0.1.

kd(fast)	kd(slow)	Binder
0.016	0.00034	B1
0.037	9.3e-05	B2
0.033	0.00014	B3
0.019	0.00016	B4
0.041	0.00011	B5
0.0088	4e-05	B6
0.017	3.7e-05	B7
0.013	3.4e-05	B8

What follows are binders tested against VEGF (assay: cell-based or functional assay).
Sequence of VEGF (P15692 whole entry): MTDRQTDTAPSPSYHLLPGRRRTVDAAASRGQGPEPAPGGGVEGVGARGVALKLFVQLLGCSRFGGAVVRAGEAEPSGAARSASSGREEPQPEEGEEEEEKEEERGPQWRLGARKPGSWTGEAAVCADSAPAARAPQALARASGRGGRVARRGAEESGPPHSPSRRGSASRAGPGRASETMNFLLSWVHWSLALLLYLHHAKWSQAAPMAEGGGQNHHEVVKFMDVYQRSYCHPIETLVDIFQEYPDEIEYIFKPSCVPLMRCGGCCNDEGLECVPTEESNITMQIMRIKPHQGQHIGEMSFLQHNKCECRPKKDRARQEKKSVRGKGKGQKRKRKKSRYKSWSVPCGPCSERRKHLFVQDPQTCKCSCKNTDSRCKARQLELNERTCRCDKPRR

HUVEC proliferation, % inhibition	HUVEC proliferation, IC50	Binder
91%	0.36 nM	B6
73%	4.29 nM	B7
79%	3.8 nM	B8

Biological target: VEGF
Assay: cell-based or functional assay
Remark: another data set of the same source

HUVEC proliferation, % inhibition	HUVEC proliferation, IC50	Binder
98%	0.4 nM	B9
104%	0.41 nM	B10
96%	0.38 nM	B11
100%	0.34 nM	B12
98%	0.52 nM	B13
95%	0.22 nM	B14

Biological target: VEGF
Assay: cell-based or functional assay
Remark: another data set of the same source

HUVEC Erk phosphorylation, IC50	Binder
0.37 nM	B6

These binders were tested against T2, recombinant human VEGF165 (assay: SPR Biacore T100, VEGF165 chip, Two State Reaction fit).
Protocol: Samples are injected for 2 min and allowed to dissociate up to 20 min at a flow rate of […]. In between sample injections, the chip surface is regenerated with 100 mM HCl. HBS-EP+(Hepes buffer pH7.4+EDTA) is used as running buffer. Binding curves are fitted using a Two State Reaction model by Biacore T100 Evaluation Software v2.0.1.
^{(a)}Heterogeneous binding curve resulting in no 1:1 fit, curves are fitted using a Two State Reaction model by Biacore T100 Evaluation Software v2.0.1

ka1	kd1	Binder
210000 M⁻¹ s⁻¹	0.0086 s⁻¹	B6
420000 M⁻¹ s⁻¹	0.057 s⁻¹	B7
320000 M⁻¹ s⁻¹	0.026 s⁻¹	B8

Biological target: VEGF
Assay: cell-based or functional assay
Remark: another data set of the same source

HUVEC proliferation, % inhibition	HUVEC proliferation, IC50	Binder
78%	1.54 nM	B15
92%	0.68 nM	B6
92%	0.6 nM	B16

Biological target: VEGF
Assay: cell-based or functional assay
Remark: another data set of the same source

HUVEC Erk phosphorylation, % inhibition	HUVEC Erk phosphorylation, IC50	Binder
103%	0.21 nM	B9
99%	0.23 nM	B10
94%	0.23 nM	B11
94%	0.18 nM	B12
100%	0.25 nM	B13
92%	0.19 nM	B14

What follows are binders tested against T1, recombinant mouse VEGF164 (assay: binding ELISA, coated rmVEGF164).
Protocol: Cross-reactivity to mouse VEGF164 is determined using a binding ELISA. […] Wells are blocked with a casein solution (1% in PBS). […] A mouse VEGF164 reactive mAb is included as positive control.

binding result	Binder
no binding (tested: 500 nM)	B8

Source: patent US20200308267A1 (Boehringer Ingelheim, published 2020)
